T1: human mesothelin (human, UniProt Q13421)
T1 chain: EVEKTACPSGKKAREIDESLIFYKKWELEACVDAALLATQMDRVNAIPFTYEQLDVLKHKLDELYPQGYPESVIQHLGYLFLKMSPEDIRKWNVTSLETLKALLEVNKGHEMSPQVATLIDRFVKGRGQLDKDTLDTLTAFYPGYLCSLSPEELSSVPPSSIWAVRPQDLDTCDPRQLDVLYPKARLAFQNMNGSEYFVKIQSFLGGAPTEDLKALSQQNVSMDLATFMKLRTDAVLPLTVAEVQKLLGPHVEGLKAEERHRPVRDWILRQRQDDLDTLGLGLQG


Biological target: T1, human mesothelin
Experiment: SPR

Row | Binder | Kd [nM]
1 | 111B10-zu (antibody, V domains shown) VH: EVQLVESGGGLVQPGGSLRLSCAASGFSLNNYAMSWVRQAPGKGLEWIGSISTGGLAFYANWAKGRFTISRDNSKNTLYLQMNSLRAEDTAVYYCARNGGGSYIFYYFDLWGQGTLVTVSS VL: DIQMTQSPSSLSASVGDRVTITCQASQSISSYLSWYQQKPGKAPKLLIYSASTLASGVPSRFSGSGSGTDFTLTISSLQCEDAATYYCQSYYDIGTSTFGGGTKVEIK | 6.5
2 | 346C6-zu (antibody, V domains shown) VH: EVQLVESGGGLVQPGGSLRLSCAASGFSLSSYAMIWVRQAPGKGLEWIGTISTGGITYYASWAKGRFTISRDNSKNTLYLQMNSLRAEDTAVYYCARGGYAASSAYYLPYYFDLWGQGTLVTVSS VL: DIQMTQSPSSLSASVGDRVTITCQSSQSVYNNNNLAWYQQKPGKVPKLLIYLASTLASGVPSRFSGSGSGTDFTLTISSLQCEDAATYYCLGGCDDDADTFAFGGGTKVEIK | 8.9

Each binder was assayed against human folate receptor alpha (human) (assay: ELISA).
Sequence of human folate receptor alpha (human) (P15328 whole entry): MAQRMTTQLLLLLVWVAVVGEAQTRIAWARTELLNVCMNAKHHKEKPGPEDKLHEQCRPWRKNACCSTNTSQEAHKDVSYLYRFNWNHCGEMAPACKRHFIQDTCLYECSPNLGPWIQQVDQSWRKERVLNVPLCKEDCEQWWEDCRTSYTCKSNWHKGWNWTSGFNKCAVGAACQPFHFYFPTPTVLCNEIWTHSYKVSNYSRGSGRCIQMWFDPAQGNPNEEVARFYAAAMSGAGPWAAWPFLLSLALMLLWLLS

Row | EC50 [µg/mL] | Binder
3 | 0.0133 | MORAb003-DBCO-PEG4 eribulin (antibody, V domains shown) VH: EVQLVESGGGVVQPGRSLRLSCSASGFTFSGYGLSWVRQAPGKGLEWVAMISSGGSYTYYADSVKGRFAISRDNAKNTLFLQMDSLRPEDTGVYFCARHGDDPAWFAYWGQGTPVTVSS VL: DIQLTQSPSSLSASVGDRVTITCSVSSSISSNNLHWYQQKPGKAPKPWIYGTSNLASGVPSRFSGSGSGTDYTFTISSLQPEDIATYYCQQWSSYPYMYTFGQGTKVEIK
4 | 0.016 | MORAb003-DBCO-PEG4 VCP eribulin (antibody, V domains shown) VH: EVQLVESGGGVVQPGRSLRLSCSASGFTFSGYGLSWVRQAPGKGLEWVAMISSGGSYTYYADSVKGRFAISRDNAKNTLFLQMDSLRPEDTGVYFCARHGDDPAWFAYWGQGTPVTVSS VL: DIQLTQSPSSLSASVGDRVTITCSVSSSISSNNLHWYQQKPGKAPKPWIYGTSNLASGVPSRFSGSGSGTDYTFTISSLQPEDIATYYCQQWSSYPYMYTFGQGTKVEIK

The remaining lines, values behind:

Row | Binder | EC50 [µg/mL]
5 | MORAb003-DBCO-PEG2 eribulin (antibody, V domains shown) VH: EVQLVESGGGVVQPGRSLRLSCSASGFTFSGYGLSWVRQAPGKGLEWVAMISSGGSYTYYADSVKGRFAISRDNAKNTLFLQMDSLRPEDTGVYFCARHGDDPAWFAYWGQGTPVTVSS VL: DIQLTQSPSSLSASVGDRVTITCSVSSSISSNNLHWYQQKPGKAPKPWIYGTSNLASGVPSRFSGSGSGTDYTFTISSLQPEDIATYYCQQWSSYPYMYTFGQGTKVEIK | 0.0191
6 | MORAb003-ER1235638 (antibody, V domains shown) VH: EVQLVESGGGVVQPGRSLRLSCSASGFTFSGYGLSWVRQAPGKGLEWVAMISSGGSYTYYADSVKGRFAISRDNAKNTLFLQMDSLRPEDTGVYFCARHGDDPAWFAYWGQGTPVTVSS VL: DIQLTQSPSSLSASVGDRVTITCSVSSSISSNNLHWYQQKPGKAPKPWIYGTSNLASGVPSRFSGSGSGTDYTFTISSLQPEDIATYYCQQWSSYPYMYTFGQGTKVEIK | 0.0153
7 | MORAb003-DBCO-ER1138856 (antibody, V domains shown) VH: EVQLVESGGGVVQPGRSLRLSCSASGFTFSGYGLSWVRQAPGKGLEWVAMISSGGSYTYYADSVKGRFAISRDNAKNTLFLQMDSLRPEDTGVYFCARHGDDPAWFAYWGQGTPVTVSS VL: DIQLTQSPSSLSASVGDRVTITCSVSSSISSNNLHWYQQKPGKAPKPWIYGTSNLASGVPSRFSGSGSGTDYTFTISSLQPEDIATYYCQQWSSYPYMYTFGQGTKVEIK | 0.015
8 | MORAb003-ER1236941 (antibody, V domains shown) VH: EVQLVESGGGVVQPGRSLRLSCSASGFTFSGYGLSWVRQAPGKGLEWVAMISSGGSYTYYADSVKGRFAISRDNAKNTLFLQMDSLRPEDTGVYFCARHGDDPAWFAYWGQGTPVTVSS VL: DIQLTQSPSSLSASVGDRVTITCSVSSSISSNNLHWYQQKPGKAPKPWIYGTSNLASGVPSRFSGSGSGTDYTFTISSLQPEDIATYYCQQWSSYPYMYTFGQGTKVEIK | 0.013

Reference: US20200297860 (published 2020)
